For 11 sequences, protein production results are on record in a protein production outcome set (Wang et al. 2014).
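Further: failed if final PepcDB status was selected cloned or expressed and not failed if soluble or beyond.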

This data set is described as follows: label from the status in PepcDB records.
As for “MNEQQRLASQQVNSSTKKEEKDYSKYFESVYQPPSLKEAKKRGKEEVKIERDFGLPEEFRNFGTGRKFYIRTYGCQMNEHDTEVMAGIFTALGYEPTFSTEDADVVLLNTCAIRENAENKVFGELGHLKALKRRNPDLLIGVCGCMSQEESVVNKIMQKNQHVDMVFGTHNIHRLPYILKDAMFSKETVVEVWSKEGDVIENLPKVRRGDIKAWVNIMYGCDKFCTYCIVPYTRGKERSRRPEDIIQEIRHLAANGYKEITLLGQNVNAYGKDFEDIEYGLGDLMDELRKVDIARIRFTTSHPRDFDDHLIEVLGKGGNLVEHIHLPVQSGSTEMLKIMARKYSREHYLELVRKIKEAIPNAVLTTDIIVGFPNETDEQFEETMSLYREVGFDTAFTFIYSPREGTPAAKMKDNVPMEVKKERLQRLNALVNKLAIEKNDRYKGQIVEVLVDGESKNNPEVLAGYTRTNKLVNFVAPKSLIGQLVKVKVTDAKTWSLNGELVEEPIEVELEHHHHHH”, the protein production entry is “failed”.
The entry for “MNESGFLIDTHAHIDGHDFAADFDAMLSRAWEAGLSHIVTVGADLESSRAAVALAGRHERIWCAVGIHPHDAGRVTDRCYDEIRTLAQGNPKVAAIGEIGLDFFRDRSPRDEQEQVFRRFIRLARELALPIVVHDRDAHERVMAILREEKARDVGGVLHCFSGDLAMARECVDMGFLISIPGTVTYPSNEALREVVRGVKIEHLLVETDCPYLTPVPHRGKRNEPAYVRLTAEKVAELKGLSLEDVGRITSLNARRLFGIGESDQAARIAYRIRNSLYLNITNRCSNRCSFCAKFDDYTVKGHHLRLDHEPDSAEVLAAVGEPGPVDEIVFCGFGEPMLRLDLIVEVARELKKRGFRIRINTDGQANLVHGRNVLPELQGLVDCISVSLNAADADTYARLCNTPFGTNGFNGICRFLEEARLYIPTVVATAVTVPGIDVAAVRALAESLGVEFREREFAEVGLEHHHHHH” is “not failed”; for “MNFKKLSNAKVSVMAVVLSVGILSGYSALNKQVTLVVRGEERTISTFSSNVGDLLESQNISYDANDIVTLDENTKLSNGDKIEVIDVKEKTVVETKDIPFEVTVVEDGSLLKGDSKVKEEGKSGKSELIYKETYHNGKKVEKEFVKKVVKAEPVNKVVSKGTKVEMQVASSRGESSRRMASSSSSSSSSNNGKNMRVVATAYTGHSITATGTKPKWGTIAVDPKVIPYGTKVYIPQFDMVFTAEDCGGAIKGNKIDIYMNDSKTVYNWGRKTIDIRILK” it is “failed”; for “MNFLVIGSSLAFLLYILATLAIVTRLFHPKGPNITLVLSLATAAIIVHGFNDGLLFFSQDTINFNLPNVISLVSLIITIAVTLVSLRFKVNLLLPVIYGFTGLWQLVILFIPPIDSIPLVVEKVILLSHISFALIAYCVLIIATLYAFQVTYINLKLKSKNLTAVAHLPPLMQVEKQLFSILTVGTAILFISQIIGFVFLDGFLAKENAHKTILSLLSFAIYGLILWGHFEKGWRGHKVLVLMVSASALLTLAYFGSRFVKEFIL” it is “failed”.
As for “MNFPLVLLILLVVTGGIWLLDYFVLRHKRVSGNTEEPWWVEYPKSFFPIILIVFSLRSFLVEPFKIPSGSMIPTLLIGDFILVNKYTYGIRLPVANLKIIDMNEPQRGEVMVFRFPEDPSIDYIKRVIGVPGDMVTYRNKQLSINDVPVQLEQGGDYKYIDGPAYIYTQRFKENMDGSEHDILINEDMPDIQLSAIHHFPNRENCTFDRTGFSCKVPEGNYFTLGDNRDGSSDSRYWGFVPENHIVGKAFLIWWNFNDLSRIGTLIK”, the protein production entry was “failed”.
The entry for “MNFRTGQPSDAAALAAISIEVWLGTYMRKGVSAFFAEYALNEFTSTKMASLLKDPNEHVIVSENEGGIDAFIRLGQGRAAPVSGCSTLEIATLYVQPRHHRRGLGRALLEQGLAYARQASAPSVWLTTNSENAPAIAFYLEQGFEKVGTTHFNIGDQ” is “not failed”; for “MNFSLVHLRENVRRVSVTVAIGAGALLISGPFFTAHTAEATETYVLAESPEFYQDNVTDYTGQISSSDITNIQAAIDDVKASEQKVIFVVFLSSFDGVDPETWTQQALQANGGGNVLIYALAPEERQYGIQGGTQWTDAELDAANNAAFQALSQEDWAGSALALAESVGSSSSSSSGSSSSSDFSGAWLAAAGVGTVAAGGGIWAYSRSRKKKTSAATLEDAREIDPRDTNRLMQLPMETLEHLAQEELTSTDDSIRRGKEELAIATSEFGPERTRSFNRAMNHSTGTLQKAFEIQQRLNDSIPESEAERQSMLVEIISSCGQADDALDAEAQNFADMRNLLINAGSKLDALTQKSVDLRTRLPKAQETLAGLRTRYSAEVLESIDDNVDLASASLDEAEEVLPQAYEIESMPAGEQGGLIDAIRHIEHAITTADKLLAGVEHADENISTAKANVADLIQEISDEINEAGQLKQSAGADGARADWASLDDAVRAASAALITASADAEKDPLGTYTELVDVDSALDTQLDTLRATAADQARQLRVFDQQLQSARSQIQKAEDLISTRGRIVKSEARTHLANAQKLYAMAQQNRTRDTRAGIDYGRQAAVAAQRASKSAQNDITTYNNRHNSGGGTTGAIVTGMVINSILNSGRGGGFGGGGGFGGGGGGFSGGGGGGGGFRGGRF” it is “failed”; for “MNFVTFQFVVFLVITVIVFMMMSPYYRKYFILLCSYFFYGTWSVPLISVILFSTSVDYYLGKKIHESHSQTHKKLYLTLSILVNCSILVYFKYMNFFISSIDAIGFSLGATQLLLNPMHIILPLGVSFYTFEAISYIVDIYRGEKPASSWLNYNFYIMYFPHLISGPIVRYKELHAQYESKIELPETSRLKEGFQLLLYGFIFKLVIADSMASISDPLFDKYQTIGHLESWLASIAFTIQIYFDFLGYTHIARGVSLFFNIKLPVNFNHPYNARNISEFWQRWHITLSLWIRDYLYIPLGGNRGRLYQTVNNLLITMFIAGLWHGASWNYAIWGTYHGCLLAVYHVFRFYYIKRNLQTENQLMKIGSIIMTYSLVVIGWVIFRSTSFEQAFTILGKMYDIPGFVQEFAMNQRASAYTDSLFYLVGMFALCFIGPTFKSIETKILSAVQPFWIKKWLYSLSIFTVLIFMFSPVKPFIYFVF” it is “failed”.
As for “MNFYWFDAFILGFTLLLGLKGIINGLIKEIFGLLGIIGGVFIASKYATQAAEFIQSTFYKIENQSLAGFAGFLAILIIFWIVCLLVGNFLSRLIKLSGLGFLDRIGGFIFGGAKIFLIFAILVFCVARIDFLNDKLDNFAKNSYTLNLLKETGSFIMNQPLTENSLDHASEKLQDIVSDLNNTQKGE”, the protein production result was “failed”.
As to “MNGFSQLEGLRGHPSVVRVIGHRGARGVMPENTLEGFAFTLAAGVRALEFDVVMTADGVPVVTHNHHLANAMTRDGQGHWLTGAERQVAEMTYAEIRALDVGGLDGRTVYGRRFPDQAFLTGIHVPRLGELLDLCAGYGDQAPYLLLELKSDPALMHDHAARAEMVAAVLADVRRYRMEPRTVMHSFDWALLGECRRQAPDLPTSYLSQLPENADDPGEDSAKPVGPDYDRMTESLPQAVASAGGQLWCPYFLDVTPELVAEAHDLGLIVLTWTVNEPEDIRRMATTGVDGIVTDYPGRTQRILIDMGLSWT”, the protein production result is on record as “not failed”.
On to “MNGHAFFFAGVRLTALPSGALWWPAERLLCVSDLHLGKAERLARRGGTLLPPYETQATLARLEADLEATGAERVLCLGDSFDDGAAADGLAEPERLWLRRLMTGRDWIWILGNHD”, for which the protein production entry is “failed”.
